The values below are quoted from earlier work in article PMC3767571.

In this data set the target is Sortilin (Homo sapiens) (UniProt Q99523).
Chain of UniProt Q99523 (Q99523 78-755): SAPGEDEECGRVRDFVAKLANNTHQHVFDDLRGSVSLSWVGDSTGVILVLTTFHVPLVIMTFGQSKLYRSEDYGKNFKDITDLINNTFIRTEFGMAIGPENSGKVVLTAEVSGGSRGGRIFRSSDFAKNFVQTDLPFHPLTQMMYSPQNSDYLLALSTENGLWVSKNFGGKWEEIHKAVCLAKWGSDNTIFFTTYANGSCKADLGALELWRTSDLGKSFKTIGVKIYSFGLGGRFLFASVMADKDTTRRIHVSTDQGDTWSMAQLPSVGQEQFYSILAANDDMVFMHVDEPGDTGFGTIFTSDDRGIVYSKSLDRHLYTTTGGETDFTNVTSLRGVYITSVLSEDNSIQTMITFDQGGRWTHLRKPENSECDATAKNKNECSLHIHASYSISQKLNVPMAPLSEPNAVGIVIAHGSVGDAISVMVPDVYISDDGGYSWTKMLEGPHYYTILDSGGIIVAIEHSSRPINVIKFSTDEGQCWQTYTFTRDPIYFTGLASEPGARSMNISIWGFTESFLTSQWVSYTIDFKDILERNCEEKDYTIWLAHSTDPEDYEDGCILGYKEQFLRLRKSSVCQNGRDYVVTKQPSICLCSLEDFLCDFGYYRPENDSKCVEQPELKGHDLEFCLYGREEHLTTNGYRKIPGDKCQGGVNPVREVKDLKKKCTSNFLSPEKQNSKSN

Turning to Progranulin (from UniProt P28799), the Kd (usually the concentration at which binding is half-saturated) was 0.011 µM.
